# Measurements reported in IntAct's records for PubMed 21390248.
# B1: 14-3-3 protein gamma (Mus musculus), P61982 (parent)
# chain: MVDREQLVQKARLAEQAERYDDMAAAMKNVTELNEPLSNEERNLLSVAYKNVVGARRSSWRVISSIEQKTSADGNEKKIEMVRAYREKIEKELEAVCQDVLSLLDNYLIKNCSETQYESKVFYLKMKGDYYRYLAEVATGEKRATVVESSEKAYSEAHEISKEHMQPTHPIRLGLALNYSVFYYEIQNAPEQACHLAKTAFDDAIAELDTLNEDSYKDSTLIMQLLRDNLTLWTSDQQDDDGGEGNN
# Variants of: B1
# Details: with lrrk2_mouse Lrrk2, Q5S006
# lrrk2_mouse Lrrk2, Q5S006, sequence (Q5S006 whole entry): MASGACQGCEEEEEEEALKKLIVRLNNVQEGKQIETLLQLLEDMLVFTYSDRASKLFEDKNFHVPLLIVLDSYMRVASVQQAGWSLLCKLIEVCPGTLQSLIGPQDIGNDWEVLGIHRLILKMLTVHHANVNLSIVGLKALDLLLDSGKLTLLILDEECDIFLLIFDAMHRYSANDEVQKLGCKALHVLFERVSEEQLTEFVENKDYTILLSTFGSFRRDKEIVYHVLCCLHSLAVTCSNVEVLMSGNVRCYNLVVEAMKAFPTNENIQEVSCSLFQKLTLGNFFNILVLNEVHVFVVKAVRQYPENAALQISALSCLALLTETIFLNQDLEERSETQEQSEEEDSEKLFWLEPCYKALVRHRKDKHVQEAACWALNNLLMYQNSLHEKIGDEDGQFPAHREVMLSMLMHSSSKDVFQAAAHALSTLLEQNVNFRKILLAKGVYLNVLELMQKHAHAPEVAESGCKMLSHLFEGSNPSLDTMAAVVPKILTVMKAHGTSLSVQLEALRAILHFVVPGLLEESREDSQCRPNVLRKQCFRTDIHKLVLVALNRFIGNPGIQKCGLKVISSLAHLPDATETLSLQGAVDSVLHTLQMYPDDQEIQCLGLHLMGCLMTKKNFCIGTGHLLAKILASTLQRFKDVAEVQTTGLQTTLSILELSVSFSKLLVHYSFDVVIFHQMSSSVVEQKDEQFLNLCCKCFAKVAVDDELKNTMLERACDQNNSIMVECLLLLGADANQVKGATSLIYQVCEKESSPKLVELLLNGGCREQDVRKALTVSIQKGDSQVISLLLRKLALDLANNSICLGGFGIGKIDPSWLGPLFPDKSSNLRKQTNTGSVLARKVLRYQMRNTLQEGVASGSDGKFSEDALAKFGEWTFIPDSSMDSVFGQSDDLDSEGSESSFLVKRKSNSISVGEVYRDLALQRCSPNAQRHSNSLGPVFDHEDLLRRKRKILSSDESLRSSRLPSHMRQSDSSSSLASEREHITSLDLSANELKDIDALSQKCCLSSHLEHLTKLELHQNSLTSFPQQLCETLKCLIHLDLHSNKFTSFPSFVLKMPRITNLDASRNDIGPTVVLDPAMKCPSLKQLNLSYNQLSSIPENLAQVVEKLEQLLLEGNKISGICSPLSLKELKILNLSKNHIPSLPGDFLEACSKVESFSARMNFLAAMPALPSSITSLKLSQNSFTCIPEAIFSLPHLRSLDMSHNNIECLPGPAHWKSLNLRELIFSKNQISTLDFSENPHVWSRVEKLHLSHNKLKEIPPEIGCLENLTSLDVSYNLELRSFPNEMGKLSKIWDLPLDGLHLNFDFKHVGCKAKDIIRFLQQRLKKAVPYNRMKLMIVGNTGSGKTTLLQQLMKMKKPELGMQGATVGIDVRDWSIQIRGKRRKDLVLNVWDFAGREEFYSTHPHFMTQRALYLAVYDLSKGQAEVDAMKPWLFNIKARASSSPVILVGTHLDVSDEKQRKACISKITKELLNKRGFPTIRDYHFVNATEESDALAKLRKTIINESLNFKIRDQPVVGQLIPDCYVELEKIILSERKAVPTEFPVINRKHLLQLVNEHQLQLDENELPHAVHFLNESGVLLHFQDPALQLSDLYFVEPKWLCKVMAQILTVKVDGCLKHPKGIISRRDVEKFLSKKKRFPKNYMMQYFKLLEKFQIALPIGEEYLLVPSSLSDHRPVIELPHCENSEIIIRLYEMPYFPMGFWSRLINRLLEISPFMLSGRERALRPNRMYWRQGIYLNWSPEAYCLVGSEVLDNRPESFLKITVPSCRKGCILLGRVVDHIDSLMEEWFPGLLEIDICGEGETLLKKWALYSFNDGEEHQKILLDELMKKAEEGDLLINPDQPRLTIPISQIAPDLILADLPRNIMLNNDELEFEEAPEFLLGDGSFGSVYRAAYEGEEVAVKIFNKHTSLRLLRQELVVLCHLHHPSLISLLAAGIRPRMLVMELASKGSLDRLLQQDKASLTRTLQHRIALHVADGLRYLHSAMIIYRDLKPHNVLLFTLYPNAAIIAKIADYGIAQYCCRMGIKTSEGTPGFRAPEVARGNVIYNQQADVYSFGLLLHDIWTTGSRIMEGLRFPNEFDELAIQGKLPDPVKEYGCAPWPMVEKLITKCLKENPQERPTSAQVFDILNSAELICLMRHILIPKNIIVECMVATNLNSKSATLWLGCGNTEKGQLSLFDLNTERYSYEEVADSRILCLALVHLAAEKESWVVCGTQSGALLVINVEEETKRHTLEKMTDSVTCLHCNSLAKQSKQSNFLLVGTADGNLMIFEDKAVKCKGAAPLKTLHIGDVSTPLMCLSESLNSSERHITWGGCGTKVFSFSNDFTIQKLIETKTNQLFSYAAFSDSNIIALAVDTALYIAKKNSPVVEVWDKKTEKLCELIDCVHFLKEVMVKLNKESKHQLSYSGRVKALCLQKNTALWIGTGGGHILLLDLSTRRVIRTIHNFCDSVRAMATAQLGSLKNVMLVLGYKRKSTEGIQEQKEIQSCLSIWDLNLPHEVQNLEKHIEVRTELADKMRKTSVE
row,Variant,effect of a mutation on the interaction
1,K50E,disrupting interaction
2,V181D,disrupting interaction
